How the values were obtained:
[1] = test system: E. coli (ATCC 25922); experiment: standard broth dilutions susceptibility test, read at 600 nm; format: cell-based
Procedure: The following methods were used to conduct the experiments described in Examples 1-3, below: The experiments were conducted using the standard broth dilutions susceptibility test (Jorgensen, J. H.; Turnidge, J. D., Susceptibility test methods: dilution and disk diffusion methods. In Manual of Clinical Microbiology, Eleventh Edition, American Society of Microbiology: 2015; pp 1253-73). Briefly, 1 μl of glycerol stock aliquot of E. coli (ATCC 25922) was inculcated into Tryptic Soya agar (TSA) (Sigma Aldrich 22091) plates and incubated at 37° C. for 24 hrs. Subsequently, 3-5 separate colonies were selected and transferred into 4 ml Tryptic Soya broth (TSB) (Sigma Aldrich 22092) and incubated at 37° C. for 24 hrs. After incubation, samples were diluted 4 ml into 50 ml TSB to make E. coli stock. 200 μl samples were then placed into wells of a 96-microwell plate. All samples were prepared in TSB, (Blank) using TSB, ERGO (OXIS International), LF (Sigma Aldrich) and NLF were diluted to 1 mg/ml. The nitration reaction was prepared following the method reported by Selzle et al (Determination of nitration degrees for the birch pollen allergen Bet v 1. Analytical and Bioanalytical Chemistry 2013, 405(27):8945-49). According to this procedure, 400 μl aliquots of 5.0 mg/ml (±5%) LF in aqueous solution were pipetted into glass vials. […] Using the plate reader (Tecan Infinite, M1000 PRO). […]

[2] = ferrous iron (Fe++) binding capacity of LF; conditions: following sodium peroxinitrite-induced nitration of the iron-containing form of the protein
Source text: As noted above, LF binds ferrous iron (Fe++) and controls iron distribution throughout the body and its ability to bind to inflammatory and other cell membranes and impact the activities of these cells through its iron binding activities and other mechanisms. The inventors hypothesized that the antibacterial effect may be linked to the iron binding activity of LF and that this antibacterial effect may be disrupted by nitration.
However, sodium peroxinitrite caused changes that went far beyond the mere nitration of a few tyrosine residues to include destruction of tyrosine and tryptophan which at least in part were converted to unidentified reaction products. Nitration can occur as a consequence of the formation of reactive nitrogen species in the body and as a result of drug or chemical reactions, and/or environmental toxins in polluted air, water, or other routes of intake.

| Molecule | growth of E. coli ([1]; LF 1 mg/ml or 2 mg/ml, ERGO 5 mM or 50 mM, compared to growth of E. coli without additions, FIGS. 1A and 1B) | iron-binding capacity of LF [2] | inhibition of growth of E. coli by previously nitrated LF ([1]; LF nitrated with sodium peroxynitrite, compared to native (non-nitrated) LF) |
| --- | --- | --- | --- |
| LF: Lactoferrin (LF) is an 80 kDa glycoprotein that exists in mucosal secretions from exocrine glands and neutrophil granules (protein, UniProt P02788 20-710, looked up) Lactotransferrin: GRRRSVQWCAVSQPEATKCFQWQRNMRKVRGPPVSCIKRDSPIQCIQAIAENRADAVTLDGGFIYEAGLAPYKLRPVAAEVYGTERQPRTHYYAVAVVKKGGSFQLNELQGLKSCHTGLRRTAGWNVPIGTLRPFLNWTGPPEPIEAAVARFFSASCVPGADKGQFPNLCRLCAGTGENKCAFSSQEPYFSYSGAFKCLRDGAGDVAFIRESTVFEDLSDEAERDEYELLCPDNTRKPVDKFKDCHLARVPSHAVVARSVNGKEDAIWNLLRQAQEKFGKDKSPKFQLFGSPSGQKDLLFKDSAIGFSRVPPRIDSGLYLGSGYFTAIQNLRKSEEEVAARRARVVWCAVGEQELRKCNQWSGLSEGSVTCSSASTTEDCIALVLKGEADAMSLDGGYVYTAGKCGLVPVLAENYKSQQSSDPDPNCVDRPVEGYLAVAVVRRSDTSLTWNSVKGKKSCHTAVDRTAGWNIPMGLLFNQTGSCKFDEYFSQSCAPGSDPRSNLCALCIGDEQGENKCVPNSNERYYGYTGAFRCLAENAGDVAFVKDVTVLQNTDGNNNEAWAKDLKLADFALLCLDGKRKPVTEARSCHLAMAPNHAVVSRMDKVERLKQVLLHQQAKFGRNGSDCPDKFCLFQSETKNLLFNDNTECLARLHGKTTYEKYLGPQYVAGITNLKKCSTSPLLEACEFLRK | reduced the growth of E. coli | remained intact |  |
| nitrated LF: LF nitrated with sodium peroxynitrite at ONOO-/Tyr molar ratios of 10/1 and 40/1 (protein, UniProt P02788 20-710, looked up, tyrosine nitration by peroxynitrite) Lactotransferrin: GRRRSVQWCAVSQPEATKCFQWQRNMRKVRGPPVSCIKRDSPIQCIQAIAENRADAVTLDGGFIYEAGLAPYKLRPVAAEVYGTERQPRTHYYAVAVVKKGGSFQLNELQGLKSCHTGLRRTAGWNVPIGTLRPFLNWTGPPEPIEAAVARFFSASCVPGADKGQFPNLCRLCAGTGENKCAFSSQEPYFSYSGAFKCLRDGAGDVAFIRESTVFEDLSDEAERDEYELLCPDNTRKPVDKFKDCHLARVPSHAVVARSVNGKEDAIWNLLRQAQEKFGKDKSPKFQLFGSPSGQKDLLFKDSAIGFSRVPPRIDSGLYLGSGYFTAIQNLRKSEEEVAARRARVVWCAVGEQELRKCNQWSGLSEGSVTCSSASTTEDCIALVLKGEADAMSLDGGYVYTAGKCGLVPVLAENYKSQQSSDPDPNCVDRPVEGYLAVAVVRRSDTSLTWNSVKGKKSCHTAVDRTAGWNIPMGLLFNQTGSCKFDEYFSQSCAPGSDPRSNLCALCIGDEQGENKCVPNSNERYYGYTGAFRCLAENAGDVAFVKDVTVLQNTDGNNNEAWAKDLKLADFALLCLDGKRKPVTEARSCHLAMAPNHAVVSRMDKVERLKQVLLHQQAKFGRNGSDCPDKFCLFQSETKNLLFNDNTECLARLHGKTTYEKYLGPQYVAGITNLKKCSTSPLLEACEFLRK |  |  | did not inhibit the growth of E. coli as much as adding native (non-nitrated) LF |
